Experiment: soluble on expression in E. coli; label from the status in PepcDB or PDB records

Row | Sequence | soluble on expression in E. coli
1 | AIAGRKSNRAKEKKQRRLEERAAMDAVCAKVDAANKLEDPLSAMPVFKKYDRNGLNLQIECKRVTALSPDTVEWAYELTRANMQTLYEQSEWGWKEREKREEMKDERAWYLLARDADSTPLAFSHFRFDVECGDEVLYCYEVQLESKVRRKGLGKFLIQILQLIANSTQMKKVMLTVFKHNHGAYQFFREALQFEIDETSPSMSGCCGEDCSYEILSRRTKYGEVSGHAHGGHCGGCCH | soluble
2 | MGSDKIHHHHHHMDNLMLNNKIYLEGTCVSNLEFSHEMYGEGFYTFKISVNRLSDVKDILPVTISERLLTEIDIKEGAELIIEGQLRSYNKFIEGSNRLILTVFARDVQPCIEKSKNPNQIFLDGYICKEPIYRTTPFGREIADILLAVNRPYNKSDYIPTISWGRNSRFCKTLNVGDNIRVWGRLQSRKYQKKVGEDEVVTKTAYEVSISKLEYADEIDEEIDKSVENLAE | not soluble
3 | MELLRPEATVLSLGRRVLSFDREGRPYHYFREGKTYKRALDGSLHLRYREGERRRRRLAPEEALGVYQEVLDLAEAHLRDERRREEVLRWTPEGLLDPTPYRRAYAWPVSILPPDAYLSVVLQATTGCTWNRCAFCSFYQDRPFQKRTPEAFREHIQAVLALLGRGRLLRRGVFLADGNALALSEPLLPLLELVRAHFPGEPVMGFLDLFTGLKKAPSWWERLGGMGLRRVYIGLETGHAPLLALLRKPGHPKEVLPLVRALKSSGLSVGVILMVGSGGKAFAEAHFRESLALLAELPLGRGDVVYLSPFREDPGTPYAALGLAPLEDLEGELQRWAQAVRRLGLRASRYEIRE | soluble
4 | MAVKINDLTLPKEKLENEYQVVQVSLWQKDGEALGWTYECVLPKLRFEKISVKVKSEAPVITKETLDEKGMAIVRFDNLMITPWGRVNGQFVSYGLTATAYKATLVPNK | not soluble
5 | MSSHKEEPLEADVDQLTQYRERCADHVTEFKSILDECNDRVNSRSNTEETCHQEMADYVHHLDHCAMPKAFASLK | not soluble
6 | GSDGDALLKPCKLGDMQCLSSATEQFLEKTSKGIPQYDIWPIDPLVVTSLDVIAPSDAGIVIRFKNLNITGLKNQQISDFQMDTKAKTVLLKTKADLHIVGDIVIELTEQSKSFTGLYTADTNVIGAVRYGYNLKNDDNGVQHFEVQPETFTCESIGEPKITLSSDLSSALEKDSGNNSLEPDMEPLKTLRQAAICKIAEACYISVVHNIRASAKILPASSFFENLN | soluble
7 | MGRMHNPGKGMAKSAIPYRRSVPSWQKMTAEEVQDQIVKMAKKGLRPSQIGVILRDSHGVGQVRRLAGNKIFRILKSKGMAPELPEDLYHLVKKAVAIRKHLERSRKDIDSKYRLILVESRIHRLARYYKTKRQLPPTWKYESGTAASLVS | soluble
8 | AHHHHHHGSGVEEHKKEAPKTFKFGVITVSDKGAKGEREDKSGPLIIEELSKLGEHVYYKIVPDDKIEVLIALFEAIKSGADVVVTTGGTGITRRDITIESIKPLFDKELSFGEVFRAKSYEEVGYATVLTRATAGIIRGQERIVVVFSLPGSVNAVKTGLEIIKSEVFHILKHARE | soluble
9 | MASLLFRQARVFDGESVHTDYDVLVVDGKIAQLGSAIEAPADAEIIEAHGKTLLPGLIDSHTHAKPPALEMALTFGVTTELDMFSDPAWMTEQRREAQTRNSMADVRSAMTGASVAGGHPTGLVGVVFDKQCPVLENAEDAEAFVAARVAEGADYFKLVIEDGTILGHEVPRLSDEMVYALVAAAHAQGLMAVAHAMTVELALLAIRAGVDGLMHVAGDRLMTDEEVAEVAQSGIFVVPTLSTMASVYGDKHGQHLAEDDRTRPLLSDAWAENLCQCWHLTNPGSTANVIDATRRLYEAGVDVLAGSDAVTVGVPGTAHGVSMHGELELLVDCGLSPAAALRAATLLPAKRFSLDDRGRIAPGLQADLVLVDGDPTTDVRQTLSIEGVWRRGEQAPRIGQAEGVGTASAASAVAG | soluble
10 | LRGFIIGRFQPFHKGHLEVIKKIAEEVDEIIIGIGSAQKSHTLENPFTAGERILMITQSLKDYDLTYYPIPIKDIEFNSIWVSYVESLTPPFDIVYSGNPLVRVLFEERGYEVKRPEMFNRKEYSGTEIRRRMLNGEKWEHLVPKAVVDVIKEIKGVERLRKLAQTDK | soluble
11 | MAGIEITVIDYYHSKINKDSKMEIKIGELPKVLNKTYLGKLNATPSMNNPVKDTQGGEKQMESMLAYIKQKGWAGESKPNFVMNRNVIGAIPSSTGVENFIVFKTNDVQVIVKTPKEKGQESEGNQMEPWKSLIYGVNFEHHCTKTANEPLPTNDAVTKAVLKAHVPRTQEGSNNSSYSILYSAQIDGIDDKRQHYEMKVLNGGLTKYHLENSSCWFYWQSVFGNCNTLIVGSRTGKQDQDPKTLTKTRERQREELDDISYVSKFVSFSFKT | soluble
12 | MGSDKIHHHHHHMFKTIHPLSVARHGKLRLKPVSDYRFAAQEAVIGLVGAEIHKAIHAFPIAFLRSAHAGGTSCQMVGLLSVTPGQNLLVSPDGRWLGDYIPAALRAYPFVLARSQEDADTRLPCLDEDCGLLSESEGQPLFSEDGQLSDFSRRIIDFLTATERNREATQKGVDVLEKAQLFTPWSLQVVIQKQTKAIEGFHVIDETKLNQLDDETWLALRRAGVLPLVYGHLLSLNRTDLLGQLSGLQAQLAQQLTARPKLDDMLDFGDESILQF | not soluble
13 | MGEDTRVSYQDIKARVLAAIRDNTWPPGAMLPGEVALAQEYGCARATVNRAMRELAEEGILERKRKAGTRVKLAPARQARFSIPVVREEIEALGASYRYALVSRSEEATPKWLAAQLGLGAGDRVLHLVCMHYADERPFQLEQRWINLATVPQAAKKDFSQTGPNEWLVSEVPFTDIRLSFSACRGNRETAEFLGGNETDAHFTVERVTWLGERPVTYARLLFHAGYRMTTTL | not soluble
14 | MGSDKIHHHHHHMVRDIDKTTSLHLNNEAQFLCFRLDAEKDAQLYGMNIFKIREIIHYDGEVTEILGGSDGVMLGFLSVRGESIPLVDVKRWLHYNANDPSRDLKECSVKDDHNLVIVCHFSNHSIALKVLKIERIIHKNWTEISAGDKQGINEEGKLSAITRFDEERVVQILDVEKMISDVFPSLKDLDDLTLRCIEAIQSQKLILIAEDSLSALKTLEKIVQTLELRYLAFPNGRELLDYLYEKEHYQQVGVVITDLEMPNISGFEVLKTIKADHRTEHLPVIINSSMSSDSNRQLAQSLEADGFVVKSNILEIHEMLKKTLS | not soluble
15 | MSQYIYELEMKVRDYECDLQGIVNNANYQHYLEHTRHEFLTSVGVSFAALHEQGVDPVVARINMAFKTPLKSGDEFVSKLYMKKEGIKYVFYQDIFRKSDQKVVVKSTVETVCVVNGRLSNSELFDNVFAPYLK | not soluble
16 | MGSDKIHHHHHHMNKIGYNMFQVDKNYWLVIAPYVYCCIKGKKALLYNTKNWEYLEVENENVIGLLRQLHKRDNLGAVFCEGKMLTELCYSNFISDFVLKEMGGVIDVASFPDKPIQMMPILNLQCDVDKLQQIEDRGIGEDILFNLLEINVFLYNVCDHHCLYCSKYSQQNLCCRVAETETSQVLDISALKSIIAQIRYGVVGRLNLFGGNIWKYPNYNDIPFLLSGFKGQIHIWSHYADFVGNKILDSDFFYDVIVPFPMEEELLRNCIFLLGDLQIKIHFYVTQIDEYAKAEEIVHKYAINDYSIHSTYVGCNLDYFEKYVYMDKGDILQSQYSMSQIFAHQKMNSHFFGSLSISVNGDVYANLNSLVLGNIYKDSLIDIVNKEMLDNTAWRKIRNDYPCCDCIYQWLCPSPSNYELAIGKPNLCHVKP | not soluble
17 | MGSDKIHHHHHHMKHMNNSVDQQIALFGQSGSGKTALLCSFYGAARDSTQSEGQLFELSAKDDRHTKLMKMYLGMKEDSLAPPQNRFESHKTVFSLKQKNIPIKDAAKSDQVNLTWHDYPGEWFEGGAVTDSEKQDKVETFRNLLGSDVALFLVDGQKLHDYANEEERYLSYLFDGFIENLNQIKDAILEGGKQLQQFPRIWVIALSKADLWPDLQVKDFENLLNKKAGNEIIALRSKLLEFIDNDEAFSFGKDFLLLSSAKFTPGHIDISQRKGVDVLLPLACVLPMQRHLWWQELKVLPINLADILLGNEIAQMGFKIVSKVLKNKVSGTNNKAMAALVFAELVRDMVDQPTELLQKAREEAVGRREFLKAITAEFTRKLNQAEADQVLVRDFA | not soluble
18 | GPGSMLTLRKQTLPVATATLLLQRRGVEYWGSSVTGRTQPYAQGDLIPRVDNMRHVVSKSSSAAANLTGSNLGVAYDSDTIFSVAGYSRAEKEHYRPLRGIARYKIEPMAESDTVAAQGLLEQAEMSKSISFVVSWWGGVLKDFPSLKKVCDDTFKEEFTSFYKSALSVAHDDAAVKALAVPFVRRQMQEHYISFPMFWRIAEKLADAIEKVPQMQKPARSVSRIAVERVTKIALNTIADEPWALDEMTSPLLFDVSNFRAWHEAGNW | not soluble
19 | SQLADAEKINVPFPSSQTVVRLGQIGIDHHNQNYFPLMVGNYILGGGTLVSRLGTEVREKRGLTYGIDSQFVPMLGEGPFIISLSTKNSEARNALHITQDTLIKFIKNGPNQEELASAKQYLTGSFPLSLGSNTNIANLLLRMAFYHLPDNYLDTYVAKINAVTDAEIKQAFQQQVNPEKLLLVTVGQ | not soluble
20 | MSKQENIISHNTDSSLLNTVMQQMKERIINEGDKPHVTVETQLKILQELSQFGFGQFLIKNQGINGYWTHYMLTHPWFGRKTGLNNSREPLSNMECFLLDKAPTMLATQQRFELFLQENQKALVNGATLASIPCGMLGELLYLDFNGINNIQLMGIDYDQAALEDANALAKERNLDRFTTLVCRNAWELNIQEEFDLISSNGLNIYEPDDNKVLDLYQQFHTALKKGGKLVTSFLTPPPHLSSQCEWIFNKINPEDLLLQRIIFSDILNAKFQCYRSSQQTQKQLALAGFKNIHFLYDEAHLFPTVIAEK | not soluble
21 | MGHHHHHHSHDGQLFCKKDYWARYGESCHGCSEQITKGLVMVAGELKYHPECFICLTCGTFIGDGDTYTLVEHSKLYCGHCYYQTVVTPVIEQILPDSPGSHLPHTVTLVSIPASSHGKRGLSVSIDPPHGPPGCGTEHSHTVRVQGVDPGCMSPDVKNSIHVGDRILEINGTPIRNVPLDEIDLLIQETSRLLQLTLEHDP | not soluble
22 | MGSDKIHHHHHHMVKRMHCNINLKYGVIMKKDCYTLRISLKPGFINAEQLKAIAYVIENFGDNKAHITTRQGIEFKISPEHLEEVEKILNNVGLNLGSTGNRVRQVVSCIGLECYNAIGDSVSLARRIHEEFEGVWVPRKVKINVSGCPNSCTFHRFCDIGICYRYKITINKEICTNCGKCKDFCDLNAIDWERKIIKDNCTGEGKCTGLCNAFKAERVISIFVGGKGGRIYKEGKHLIDLKNEDDVLFVIDELISLYAKFGKGRMADFVENYGIENLRNNIKELIK | not soluble
23 | MSPQESRRLSIQRCIQSLVHACQCRNANCSLPSCQKMKRVVQHTKGCKRKTNGGCPVCKQLIALCCYHAKHCQENKCPVPFCLNIKHK | soluble
24 | MAHHHHHHMLQINAFKLVRATPFLLKRTGKPADTPDYKQVYLPYDAAPTERELERERRRFKQAHHGRMEHRKLVEVKEVPLNVYTYGKEGMSLPIAIFKDQKDPVIGPEWTYPGIYENKIAAQHWYTEELFDKESKEAFESPWQQQILDNQVKRRMAKVMFRMRQVNMKAVDLFQKERGSSRRSGGAGE | not soluble
